According to article PMC5843284:

Legend:
[1] = molecular target: HIV-1 group M capsid (HIV-1 group M)
[2] = molecular target: HIV-1 group M capsid (HIV-1 group M); remark: listed apart in the source

Substance | fold restriction of single-cycle HIV-1 infection in CRFK cells stably expressing the TRIM fusion, against the negative control [2] | further results
gorilla TRIM-RanCyp with the human residue 75G | – | fold change of restriction of single-cycle HIV-1 infection in CRFK cells stably expressing the TRIM fusion, against gorilla TRIM-RanCyp [1]: 35 fold
gorilla TRIM-RanCyp | 2 fold | –
human TRIM-RanCyp with the gorilla residue 75R | – | fold decrease in fold change of restriction of single-cycle HIV-1 infection in CRFK cells stably expressing the TRIM fusion, against human TRIM-RanCyp [1]: 70 fold
marmoset TRIM-RanCyp | 100 fold | –
red-capped mangabey TRIM-RanCyp | 100 fold | –
orangutan TRIM-RanCyp | 100 fold | –
titi monkey TRIM-RanCyp | 100 fold | –
chimpanzee TRIM-RanCyp | 100 fold | –
